# Values joined by “and” are separate entries in the source; they are usually repeats but may differ in a detail not shown here. Equal entries are not always repeated.
# Legend:
# Assay in all cases: fluorescence polarization
# [1] = molecular target: T1, DmORC holocomplex (Orc1-6) (Drosophila melanogaster) (UniProt O16810+Q24168+Q24169+Q9Y1B2); conditions: EMSA: 50 mM HEPES pH 7.5, 150 mM K-glutamate, 10% glycerol, 1 mM BME, 2 nM DNA, RT 20 min, 1% agarose; FP: same with 150 or 300 mM K-glutamate, 5 mM MgOAc …
# [2] = test system: AmOrc1 IDR (Acropora millepora); conditions: about 100 nM or less; EMSA: 50 mM HEPES pH 7.5, 150 mM K-glutamate, 10% glycerol, 1 mM BME, 2 nM DNA, RT 20 min, 1% agarose; FP: same with 150 or 300 mM K-glutamate, 5 mM MgOAc …
# [3] = test system: AqOrc1 IDR (Amphimedon queenslandica); conditions: about 100 nM or less; EMSA: 50 mM HEPES pH 7.5, 150 mM K-glutamate, 10% glycerol, 1 mM BME, 2 nM DNA, RT 20 min, 1% agarose; FP: same with 150 or 300 mM K-glutamate, 5 mM MgOAc …
# [4] = molecular target: DmORC delta1IDR holocomplex Orc1:del248-549 (Drosophila melanogaster) (UniProt O16810+Q24168+Q24169+Q9Y1B2); conditions: EMSA: 50 mM HEPES pH 7.5, 150 mM K-glutamate, 10% glycerol, 1 mM BME, 2 nM DNA, RT 20 min, 1% agarose, FP: same with 150 or 300 mM K-glutamate
# [5] = test system: MyOrc1 IDR (Mizuhopecten yessoensis); conditions: about 100 nM or less; EMSA: 50 mM HEPES pH 7.5, 150 mM K-glutamate, 10% glycerol, 1 mM BME, 2 nM DNA, RT 20 min, 1% agarose; FP: same with 150 or 300 mM K-glutamate, 5 mM MgOAc …
# [6] = test system: DgOrc1 IDR (Dimorphilus gyrociliatus); conditions: about 100 nM or less; EMSA: 50 mM HEPES pH 7.5, 150 mM K-glutamate, 10% glycerol, 1 mM BME, 2 nM DNA, RT 20 min, 1% agarose; FP: same with 150 or 300 mM K-glutamate, 5 mM MgOAc …
# [7] = molecular target: T1, DmORC holocomplex (Orc1-6) (Drosophila melanogaster); conditions: EMSA: 50 mM HEPES pH 7.5, 150 mM K-glutamate, 10% glycerol, 1 mM BME, 2 nM DNA, RT 20 min, 1% agarose; FP: same with 150 or 300 mM K-glutamate, 5 mM MgOAc …; remark: listed apart in the source
# T1 sequence (O16810 whole entry, chain 1 of 4): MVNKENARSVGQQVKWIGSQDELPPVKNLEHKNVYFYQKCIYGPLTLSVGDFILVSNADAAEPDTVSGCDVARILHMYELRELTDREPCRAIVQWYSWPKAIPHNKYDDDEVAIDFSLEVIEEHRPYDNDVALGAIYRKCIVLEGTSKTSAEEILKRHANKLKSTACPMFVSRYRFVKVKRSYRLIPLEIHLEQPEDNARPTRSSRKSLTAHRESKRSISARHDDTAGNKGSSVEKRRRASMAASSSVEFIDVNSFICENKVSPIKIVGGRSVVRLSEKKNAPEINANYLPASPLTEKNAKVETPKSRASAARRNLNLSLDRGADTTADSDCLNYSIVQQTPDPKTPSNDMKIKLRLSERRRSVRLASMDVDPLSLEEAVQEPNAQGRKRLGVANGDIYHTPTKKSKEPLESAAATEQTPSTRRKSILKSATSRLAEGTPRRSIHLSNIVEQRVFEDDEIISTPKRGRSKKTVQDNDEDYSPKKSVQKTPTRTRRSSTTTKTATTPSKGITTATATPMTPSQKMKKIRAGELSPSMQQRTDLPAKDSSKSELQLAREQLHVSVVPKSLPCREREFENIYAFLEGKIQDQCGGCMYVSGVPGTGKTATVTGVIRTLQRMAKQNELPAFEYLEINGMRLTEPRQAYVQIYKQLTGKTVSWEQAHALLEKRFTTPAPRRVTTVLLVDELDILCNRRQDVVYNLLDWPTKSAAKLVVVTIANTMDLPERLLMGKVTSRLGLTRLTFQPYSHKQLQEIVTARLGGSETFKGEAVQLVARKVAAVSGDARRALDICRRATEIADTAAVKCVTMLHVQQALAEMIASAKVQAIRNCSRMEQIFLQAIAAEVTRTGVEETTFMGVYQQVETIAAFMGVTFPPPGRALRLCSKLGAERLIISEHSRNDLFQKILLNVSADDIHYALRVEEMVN
# T1 sequence (Q24168 whole entry, chain 2 of 4): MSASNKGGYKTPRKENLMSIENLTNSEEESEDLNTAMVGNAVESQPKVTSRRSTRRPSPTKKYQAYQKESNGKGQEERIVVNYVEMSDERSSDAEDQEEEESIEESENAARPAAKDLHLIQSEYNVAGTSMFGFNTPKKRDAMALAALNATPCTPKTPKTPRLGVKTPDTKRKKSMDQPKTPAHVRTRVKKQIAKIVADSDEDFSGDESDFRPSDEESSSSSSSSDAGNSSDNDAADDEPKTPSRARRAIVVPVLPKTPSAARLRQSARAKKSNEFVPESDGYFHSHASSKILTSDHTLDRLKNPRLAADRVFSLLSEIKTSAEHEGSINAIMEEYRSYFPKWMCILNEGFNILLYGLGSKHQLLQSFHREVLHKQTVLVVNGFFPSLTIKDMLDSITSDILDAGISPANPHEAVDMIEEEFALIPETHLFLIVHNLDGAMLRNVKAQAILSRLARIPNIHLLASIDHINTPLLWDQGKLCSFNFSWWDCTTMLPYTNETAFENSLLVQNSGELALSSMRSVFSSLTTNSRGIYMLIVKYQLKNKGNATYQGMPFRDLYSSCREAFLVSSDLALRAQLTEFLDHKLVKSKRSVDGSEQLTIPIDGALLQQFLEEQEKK
# T1 sequence (Q24169 whole entry, chain 3 of 4): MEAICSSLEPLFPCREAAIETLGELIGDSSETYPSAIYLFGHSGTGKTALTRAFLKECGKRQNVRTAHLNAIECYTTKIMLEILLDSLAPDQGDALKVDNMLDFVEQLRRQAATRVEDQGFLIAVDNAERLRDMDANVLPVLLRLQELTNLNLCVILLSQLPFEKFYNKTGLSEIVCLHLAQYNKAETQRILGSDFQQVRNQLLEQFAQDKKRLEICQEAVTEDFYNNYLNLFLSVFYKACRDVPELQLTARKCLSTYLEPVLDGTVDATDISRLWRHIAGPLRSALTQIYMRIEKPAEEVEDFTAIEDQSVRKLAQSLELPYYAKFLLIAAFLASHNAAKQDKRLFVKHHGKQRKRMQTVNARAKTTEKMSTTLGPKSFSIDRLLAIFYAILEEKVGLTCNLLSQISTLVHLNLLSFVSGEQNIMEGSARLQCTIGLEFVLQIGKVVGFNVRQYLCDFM
# T1 sequence (Q9Y1B2 whole entry, chain 4 of 4): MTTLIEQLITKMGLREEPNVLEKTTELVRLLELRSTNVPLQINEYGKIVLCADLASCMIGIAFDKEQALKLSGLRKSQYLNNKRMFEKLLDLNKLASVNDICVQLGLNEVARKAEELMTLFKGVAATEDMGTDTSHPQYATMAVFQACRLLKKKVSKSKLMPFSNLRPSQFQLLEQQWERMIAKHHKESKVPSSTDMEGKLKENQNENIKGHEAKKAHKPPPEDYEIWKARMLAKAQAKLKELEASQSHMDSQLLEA
# DmORC delta1IDR holocomplex Orc1:del248-549 (Drosophila melanogaster), sequence (O16810 whole entry, stated change not applied, chain 1 of 4): as the sequence (O16810 whole entry, chain 1 of 4) above
# DmORC delta1IDR holocomplex Orc1:del248-549 (Drosophila melanogaster), sequence (Q24168 whole entry, stated change not applied, chain 2 of 4): as the sequence (Q24168 whole entry, chain 2 of 4) above
# DmORC delta1IDR holocomplex Orc1:del248-549 (Drosophila melanogaster), sequence (Q24169 whole entry, stated change not applied, chain 3 of 4): as the sequence (Q24169 whole entry, chain 3 of 4) above
# DmORC delta1IDR holocomplex Orc1:del248-549 (Drosophila melanogaster), sequence (Q9Y1B2 whole entry, stated change not applied, chain 4 of 4): as the sequence (Q9Y1B2 whole entry, chain 4 of 4) above
sequence,measurement,setting,value
GAAGCTAGACTTAGGTGTCATATTGAACCTACTATGCCGAACTAGTTACGAGCTATAACC (double strand) [FITC-dsDNA 60 bp],Kd,[1],0.007 µM
same,Kd,[2],0.1 µM
same,Kd,[3],0.1 µM
same,Kd,[4]; 5 mM MgOAc …,0.019 µM
same,Kd,"[4]; no ATP, 150 mM KGlut, 5 mM MgOAc, severely impaired",> 1 µM
same,Kd,[5],0.1 µM
same,Kd,[6],0.1 µM
same,Kd,[7],0.006 µM and 0.034 µM
